Measured values: US10442866 (BEIJING MABWORKS BIOTECH, dated 2019)
Changes are numbered by the printed parent chain. Like-named read-outs stand apart in the source and are kept apart here.

T1: recombinant rhesus OX40-his (Sino Biological, Cat#:90846-C08H) (rhesus monkey, UniProt P43489 29-214 (human entry))
T1 construct: bought protein; also called monkey OX40-his; rhOX40-his; not shown: His tag
T1 chain: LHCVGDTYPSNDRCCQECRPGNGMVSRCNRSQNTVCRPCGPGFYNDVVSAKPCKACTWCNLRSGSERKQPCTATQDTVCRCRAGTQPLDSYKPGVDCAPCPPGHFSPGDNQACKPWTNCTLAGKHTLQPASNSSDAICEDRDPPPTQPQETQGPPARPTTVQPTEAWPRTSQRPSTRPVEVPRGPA

T2: recombinant human OX40-his (Sino Biological, Cat#:10481-H03H) (human, UniProt P43489 29-214)
T2 construct: bought protein; also called hOX40-his; not shown: His tag
T2 sequence: T1 chain with Q16H, N29S, A50S, A55P, P70L, P145A, T159I, R173G, R183G, P185R

T3: murine OX40-His (Crown, Cat#: E3350-B1707) (mouse, UniProt P47741 20-211)
T3 construct: bought protein; also called mouse OX40-his; muOX40-his; not shown: His tag
T3 sequence: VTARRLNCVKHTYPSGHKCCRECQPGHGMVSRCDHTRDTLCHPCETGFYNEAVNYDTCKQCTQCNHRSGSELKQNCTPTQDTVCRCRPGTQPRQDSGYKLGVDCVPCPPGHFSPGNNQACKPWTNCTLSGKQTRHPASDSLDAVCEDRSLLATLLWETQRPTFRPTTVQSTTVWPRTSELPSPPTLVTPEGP

B1: 68C8-VH2VL3 (antibody, human IgG1, kappa, V domains shown)
VH: QVQLVQSGAEVKKPGASVKVSCKVSGDTFTSYWITWVRQRPGKGLEWMGDIHPGSGSTNNNEKFKNRVTMTVDTSTDTAYMELSSLRSEDTAVYYCATLRPYYFVYWGQGTLVTVSS
VL: DIQMTQSPSSLSASVGDRVTITCRASQDISNYLNWYQQKPGKTVKLLIYYTSRLLSGVPSRFSGSGSGTDYTLTISSLQPEDFATYFCQQGNTLPLTFGQGTRLEIKR
notes: humanized; also called 68C8-H2L3; 68C8H2L3
B2: 71H8-VH2VL3 (antibody, human IgG1, kappa, V domains shown)
VH: B1 VH with D27Y, H52Y, N60Q, N66S
VL: B1 VL
notes: humanized; also called 71H8-H2L3; 71H8H2L3

Legend:
[1] = target: T1, recombinant rhesus OX40-his (Sino …); test: ELISA on coated rhesus OX40-His, OD450
[2] = target: full length OX40 ECD-mFc (containing CRD1/2/3/4); test: ELISA with recombinant mFc-tagged OX40 ECD proteins, OD450
Chain of full length OX40 ECD-mFc (containing CRD1/2/3/4) (chain, as listed by the source limits assumed): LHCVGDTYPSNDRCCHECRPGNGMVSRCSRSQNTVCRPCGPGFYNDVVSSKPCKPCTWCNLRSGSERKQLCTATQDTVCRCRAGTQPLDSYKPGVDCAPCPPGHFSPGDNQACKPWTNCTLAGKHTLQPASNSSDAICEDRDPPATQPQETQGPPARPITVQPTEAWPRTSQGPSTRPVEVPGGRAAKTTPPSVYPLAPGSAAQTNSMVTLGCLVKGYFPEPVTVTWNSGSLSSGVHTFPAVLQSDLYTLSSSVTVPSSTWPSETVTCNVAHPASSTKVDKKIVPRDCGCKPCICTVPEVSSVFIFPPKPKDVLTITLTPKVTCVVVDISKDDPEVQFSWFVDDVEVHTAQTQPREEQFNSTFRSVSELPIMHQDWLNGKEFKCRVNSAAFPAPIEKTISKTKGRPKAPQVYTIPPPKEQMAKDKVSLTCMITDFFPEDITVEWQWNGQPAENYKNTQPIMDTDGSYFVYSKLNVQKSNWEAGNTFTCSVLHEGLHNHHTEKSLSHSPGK
Excerpt: (§1) There are four individual cysteine enriched domains (CRD) in OX40 extracellular domain (ECD), namely CRD1, CRD2, CRD3 and CRD4, respectively. Based on the structure of OX40, four recombinant OX40 proteins were generated, i.e., the full-length OX40 ECD (containing CRD1/2/3/4) (SEQ ID NO.: 38), truncant 1-mFc (containing CRD2/3/4) (SEQ ID NO.: 39), truncant 2-mFc (containing CRD/3/4) (SEQ ID NO.: 40) and truncant 3-mFc (containing CRD/4) (SEQ ID NO.: 41). All the recombinant proteins were linked with a signal peptide (SEQ ID NO.: 42) at the N terminus for protein secretion and a mFc-tag (SEQ ID NO.: 43) at the C terminus for ELISA assay. DNA sequences were synthesized and subcloned into pcDNA3.1 vector. The expression and purification of the recombinant proteins were carried out according to the protocols in Example 10. ELISA assay was performed to assess binding capacity of mAbs to recombinant OX40 proteins, following the protocol in Example 2.

[3] = target: truncant 2-mFc (containing CRD/3/4); test: as above
Chain of truncant 2-mFc (containing CRD/3/4) (chain, as listed by the source limits assumed): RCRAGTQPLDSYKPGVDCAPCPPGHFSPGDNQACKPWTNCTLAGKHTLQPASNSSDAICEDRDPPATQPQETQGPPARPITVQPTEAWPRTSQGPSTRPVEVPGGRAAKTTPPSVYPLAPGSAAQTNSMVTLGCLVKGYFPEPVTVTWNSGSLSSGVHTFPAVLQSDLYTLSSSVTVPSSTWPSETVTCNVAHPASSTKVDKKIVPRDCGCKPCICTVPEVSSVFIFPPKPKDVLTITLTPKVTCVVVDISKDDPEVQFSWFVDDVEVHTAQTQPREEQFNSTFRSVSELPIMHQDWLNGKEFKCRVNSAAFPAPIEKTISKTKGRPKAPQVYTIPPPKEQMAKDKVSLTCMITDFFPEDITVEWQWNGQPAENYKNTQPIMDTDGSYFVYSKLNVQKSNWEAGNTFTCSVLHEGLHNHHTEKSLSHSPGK
Excerpt: as §1

[4] = target: truncant 3-mFc (containing CRD/4); test: as above
Chain of truncant 3-mFc (containing CRD/4) (chain, as listed by the source limits assumed): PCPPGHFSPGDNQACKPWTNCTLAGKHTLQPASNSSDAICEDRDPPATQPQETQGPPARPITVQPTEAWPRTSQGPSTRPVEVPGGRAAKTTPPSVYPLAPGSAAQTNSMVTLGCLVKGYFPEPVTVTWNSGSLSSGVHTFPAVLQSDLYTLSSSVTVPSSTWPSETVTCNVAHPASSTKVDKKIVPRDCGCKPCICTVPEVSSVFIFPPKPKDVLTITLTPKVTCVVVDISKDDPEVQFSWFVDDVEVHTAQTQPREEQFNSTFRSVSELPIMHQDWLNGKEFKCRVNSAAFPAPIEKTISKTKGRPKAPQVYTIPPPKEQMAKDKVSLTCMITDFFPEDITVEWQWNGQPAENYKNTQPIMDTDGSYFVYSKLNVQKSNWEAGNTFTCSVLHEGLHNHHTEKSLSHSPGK
Excerpt: as §1

[5] = target: truncant 1-mFc (containing CRD2/3/4); test: as above
Chain of truncant 1-mFc (containing CRD2/3/4) (chain, as listed by the source limits assumed): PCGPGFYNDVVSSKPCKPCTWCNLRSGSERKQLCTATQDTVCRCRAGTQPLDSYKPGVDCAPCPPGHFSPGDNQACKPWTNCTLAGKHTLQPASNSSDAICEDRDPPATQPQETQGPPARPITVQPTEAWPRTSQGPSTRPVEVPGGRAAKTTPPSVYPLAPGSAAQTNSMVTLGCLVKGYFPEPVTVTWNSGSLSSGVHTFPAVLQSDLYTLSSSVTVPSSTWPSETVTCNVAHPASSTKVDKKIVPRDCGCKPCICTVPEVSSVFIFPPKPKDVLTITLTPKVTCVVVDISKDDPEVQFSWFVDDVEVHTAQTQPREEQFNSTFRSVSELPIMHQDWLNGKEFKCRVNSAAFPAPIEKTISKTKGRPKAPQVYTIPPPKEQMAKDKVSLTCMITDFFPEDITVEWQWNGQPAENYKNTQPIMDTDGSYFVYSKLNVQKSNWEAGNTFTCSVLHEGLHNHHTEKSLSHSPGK
Excerpt: as §1

[6] = target: T2, recombinant human OX40-his (Sino …); test: ELISA on coated human OX40-his, OD450
[7] = target: T3, murine OX40-His (Crown, Cat#: …); test: ELISA on coated mouse OX40-His, OD450
[8] = target: T1, recombinant rhesus OX40-his (Sino …); test: ELISA on coated rhesus OX40-His, OD450
[9] = target: T2, recombinant human OX40-his (Sino …); test: ELISA on coated human OX40-His, OD450
[10] = target: T3, murine OX40-His (Crown, Cat#: …); test: ELISA on coated mouse OX40-His, OD450; remark: listed apart in the source
[11] = target: T2, recombinant human OX40-his (Sino …); test: ELISA on coated human OX40-his, OD450; remark: listed apart in the source

Binder | binding result [1] | binding result [2] | binding result [3] | binding result [4] | binding result [5] | EC50 (read off the curve) [6] | binding result [7] | EC50 (read off the curve) [8] | EC50 (read off the curve) [9] | binding result [10] | EC50 (read off the curve) [11]
B1 | binds | binds | binds | no binding | binds | ~3 ng/mL | no binding (tested: 10000 ng/ml (log 4)) |  |  |  | 
B2 |  | binds | binds | no binding | binds |  |  | ~3 ng/mL | ~3 ng/mL | no binding (tested: 10000 ng/ml (log 4)) | ~7 ng/mL
